# According to US20230331862A1 (SHANGHAI GENBASE BIOTECHNOLOGY, published 2023):
# What was measured:
# [1] = molecular target: T1, CEACAM5 (CD66e) on tumour cells (human, UniProt P06731 35-685, glycosylated (natural, as on tumour cells)); assay: flow cytometry on Lovo monoclonal clone 7-2, fluorescent secondary antibody
# T1 construct: whole, on cells; One molecule for CEACAM5 on all three cell lines; the cell line is named under assay; also called natural CEACAM5 antigen; Lovo cells
# T1 sequence (looked up): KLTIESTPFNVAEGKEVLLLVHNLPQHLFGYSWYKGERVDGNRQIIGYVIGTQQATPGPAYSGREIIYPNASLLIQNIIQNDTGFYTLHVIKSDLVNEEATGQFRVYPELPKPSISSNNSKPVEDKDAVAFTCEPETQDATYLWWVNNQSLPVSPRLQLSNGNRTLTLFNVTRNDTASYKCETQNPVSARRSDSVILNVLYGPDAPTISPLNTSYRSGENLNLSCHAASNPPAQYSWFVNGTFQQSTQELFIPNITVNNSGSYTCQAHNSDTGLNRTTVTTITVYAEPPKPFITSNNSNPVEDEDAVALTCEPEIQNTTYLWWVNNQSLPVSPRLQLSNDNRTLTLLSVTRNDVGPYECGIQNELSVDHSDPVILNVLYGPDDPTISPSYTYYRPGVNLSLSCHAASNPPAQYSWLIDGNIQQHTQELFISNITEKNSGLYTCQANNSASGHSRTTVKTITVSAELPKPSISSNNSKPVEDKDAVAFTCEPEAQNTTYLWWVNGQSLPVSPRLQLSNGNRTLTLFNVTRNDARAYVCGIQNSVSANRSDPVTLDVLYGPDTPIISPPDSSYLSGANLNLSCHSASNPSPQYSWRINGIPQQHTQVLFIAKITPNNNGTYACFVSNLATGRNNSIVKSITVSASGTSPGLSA
# Description: (§1) After labeling, anti-mouse Fc-PE fluorescence-labeled secondary antibody was added, sorted into 96-well plate by BD FACS Aria, after monoclonal culture was carried out, MN14 was used to detect the expression of monoclonal CEACAM5, and the results were as follows: […]
# [2] = molecular target: T1, CEACAM5 (CD66e) on tumour cells; assay: flow cytometry on Lovo monoclonal clone 3-2, fluorescent secondary antibody
# Description: as §1
# [3] = molecular target: T1, CEACAM5 (CD66e) on tumour cells; assay: flow cytometry on Lovo monoclonal clone 2-2, fluorescent secondary antibody
# Description: as §1
# [4] = molecular target: T1, CEACAM5 (CD66e) on tumour cells; assay: flow cytometry on Lovo monoclonal clone 3-1, fluorescent secondary antibody
# Description: as §1
# [5] = molecular target: T1, CEACAM5 (CD66e) on tumour cells; assay: flow cytometry on Lovo monoclonal clone 5-2, fluorescent secondary antibody
# Description: as §1
# [6] = molecular target: T1, CEACAM5 (CD66e) on tumour cells; assay: flow cytometry on Lovo monoclonal clone 5-1, fluorescent secondary antibody
# Description: as §1
# [7] = molecular target: T1, CEACAM5 (CD66e) on tumour cells; assay: flow cytometry on Lovo monoclonal clone 2-1, fluorescent secondary antibody
# Description: as §1
# [8] = molecular target: T1, CEACAM5 (CD66e) on tumour cells; assay: flow cytometry on Lovo monoclonal clone 4-2, fluorescent secondary antibody
# Description: as §1
# [9] = molecular target: T1, CEACAM5 (CD66e) on tumour cells; assay: flow cytometry on Lovo monoclonal clone 8-2, fluorescent secondary antibody
# Description: as §1
# [10] = molecular target: T1, CEACAM5 (CD66e) on tumour cells; assay: flow cytometry on Lovo monoclonal clone 1-1, fluorescent secondary antibody
# Description: as §1
# [11] = molecular target: T1, CEACAM5 (CD66e) on tumour cells; assay: flow cytometry on Lovo monoclonal clone 6-2, fluorescent secondary antibody
# Description: as §1
# [12] = molecular target: T1, CEACAM5 (CD66e) on tumour cells; assay: flow cytometry on Lovo monoclonal clone 8-1, fluorescent secondary antibody
# Description: as §1
# [13] = molecular target: T1, CEACAM5 (CD66e) on tumour cells; assay: flow cytometry on Lovo monoclonal clone 4-1, fluorescent secondary antibody
# Description: as §1
# [14] = molecular target: T1, CEACAM5 (CD66e) on tumour cells; assay: flow cytometry on Lovo monoclonal clone 7-1, fluorescent secondary antibody
# Description: as §1
# [15] = molecular target: T1, CEACAM5 (CD66e) on tumour cells; assay: flow cytometry on Lovo monoclonal clone 1-2, fluorescent secondary antibody
# Description: as §1
# [16] = molecular target: T1, CEACAM5 (CD66e) on tumour cells; assay: flow cytometry on Lovo monoclonal clone 6-1, fluorescent secondary antibody
# Description: as §1
# [17] = molecular target: T1, CEACAM5 (CD66e) on tumour cells; assay: flow cytometry on LS174T cells, anti-human IgG Fc-APC
# Description: (§2) After the cells were digested with TrypLE, they were centrifuged and resuspended in DPBS solution containing 2% BSA (FACS buffer solution, 4° C.), and added into a U-bottom 96-well plate, 5×10⁵/100 μl/well, and antibody diluted in concentration gradient was added, incubated at 4° C. for 1 hour, the supernatant was discarded after centrifugation; 100 μl of solution containing anti-human IgG Fc-APC secondary antibody was added and incubated at 4° C. for 1 hour, washing was performed once with FACS buffer, resuspending was performed in 200 μl FACS buffer, and the fluorescence signal value was read on BD Cantoll.
# [18] = molecular target: T2, recombinant CEACAM5 antigen (Sinobiological, 11077-H08H) (UniProt P06731 35-685); assay: ELISA, coated recombinant CEACAM5-His 1 µg/ml, anti-human IgG Fc-HRP
# T2 construct: Bought protein; also called CEACAM5-His recombinant protein; CEACAM5-His antigen; not shown: His tag
# T2 sequence (looked up): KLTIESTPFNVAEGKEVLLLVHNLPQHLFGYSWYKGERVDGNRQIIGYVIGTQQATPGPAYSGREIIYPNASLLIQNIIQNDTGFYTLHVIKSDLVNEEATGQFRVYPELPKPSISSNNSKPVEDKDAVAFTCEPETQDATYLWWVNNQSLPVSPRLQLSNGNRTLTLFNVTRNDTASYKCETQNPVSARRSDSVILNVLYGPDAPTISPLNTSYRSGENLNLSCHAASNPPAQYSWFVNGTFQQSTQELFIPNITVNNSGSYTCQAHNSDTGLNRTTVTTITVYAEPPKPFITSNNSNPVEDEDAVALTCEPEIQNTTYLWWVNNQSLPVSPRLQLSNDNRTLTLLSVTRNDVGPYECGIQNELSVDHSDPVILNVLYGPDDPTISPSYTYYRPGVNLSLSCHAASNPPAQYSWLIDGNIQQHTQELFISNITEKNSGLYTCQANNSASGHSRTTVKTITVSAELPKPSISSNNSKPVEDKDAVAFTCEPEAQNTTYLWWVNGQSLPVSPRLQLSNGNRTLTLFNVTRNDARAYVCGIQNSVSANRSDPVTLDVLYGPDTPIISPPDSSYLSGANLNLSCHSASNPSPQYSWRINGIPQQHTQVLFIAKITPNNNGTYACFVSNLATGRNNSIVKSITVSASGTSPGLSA
# Description: The recombinant CEACAM5 antigen (Sinobiological, 11077-H08H) was diluted to 1 μg/ml with DPBS solution, added to a 96-well plate, 100 μl per well, and coated overnight at 2-8° C.; the coating solution was discarded, washing was performed twice with PBS solution, PBS solution containing 2% BSA was added, and blocked at room temperature for 2 hours; the blocking solution was discarded, the antibody diluted in concentration gradient was added, and incubated at 37° C. for 1 hour; the antibody solution was discarded, and washing was performed for 4 times with PBS solution containing 0.05% Tween 20 (PBST solution); anti-human IgG Fc-HRP secondary antibody was added and incubated at 37° C. for 30 minutes; washing was performed for 4 times with PBST solution, TMB chromogenic substrate was added, color development was performed for 5-10 minutes, and the reaction was terminated with equal volume of 1M H₂SO₄; the absorbance at 450 nm was read on a microplate reader.
# [19] = molecular target: T1, CEACAM5 (CD66e) on tumour cells; assay: flow cytometry on KATO3 cells, anti-human IgG Fc-APC
# Description: as §2
Binder,"CEACAM5 positive ratio, % [1]","CEACAM5 positive ratio, % [2]","CEACAM5 positive ratio, % [3]","CEACAM5 positive ratio, % [4]","CEACAM5 positive ratio, % [5]","CEACAM5 positive ratio, % [6]","CEACAM5 positive ratio, % [7]","CEACAM5 positive ratio, % [8]","CEACAM5 positive ratio, % [9]","CEACAM5 positive ratio, % [10]","CEACAM5 positive ratio, % [11]","CEACAM5 positive ratio, % [12]","CEACAM5 positive ratio, % [13]","CEACAM5 positive ratio, % [14]","CEACAM5 positive ratio, % [15]","CEACAM5 positive ratio, % [16]",EC50 [17],EC50 [18],EC50 [19]
"anti-CEACAM5 antibody hMN14 (antibody, human IgG1, kappa, V domains shown, T0002 prints whole heavy and light chains under the labels 'hMN14 VH' and 'hMN14 VL') VH: EVQLVESGGGVVQPGRSLRLSCSASGFDFTTYWMSWVRQAPGKGLEWIGEIHPDSSTINYAPSLKDRFTISRDNAKNTLFLQMDSLRPEDTGVYFCASLYFGFPWFAYWGQGTPVTVSS VL: DIQLTQSPSSLSASVGDRVTITCKASQDVGTSVAWYQQKPGKAPKLLIYWTSTRHTGVPSRFSGSGSGTDFTFTISSLQPEDIATYYCQQYSLYRSFGQGTKVEIKR",96.9%,95.9%,96.4%,97.8%,96.9%,76.6%,95.6%,82.7%,96.8%,90.5%,88.1%,97.9%,93.7%,93.9%,95.6%,98.6%,–,–,–
"M17 (6A8) chimeric recombinant antibody (antibody, V domains shown) VH: EVQLQQSGAELVRPGASVKLSCTASGFNIKDDYMHWVKQRPEQGLEWIGWIDPENGDTEYASKFQGKATITADTSSNTAYLLLSSLTSEDTAVYYCTTIYYYGSRGAMDYWGQGTSVTVSS VL: QIVLTQSPAIMSASPGEKVTITCSASSSVSYMHWFQQKPGTSPKLWIYTTSTLASGVPARFSGSGSGTSYFLTISRMEAEDAATYYCHQRSSYPLTFGAGTKLELK",–,–,–,–,–,–,–,–,–,–,–,–,–,–,–,–,1.5 µg/mL,0.013 µg/mL,2.7 µg/mL
"M18 (7G1) chimeric recombinant antibody (antibody, V domains shown) VH: QIQLVQSGPELKKPGETVKISCKASGYTFTTYGMTWVKQAPGKGLKWMGWINTYSGVPTYIDDFKGRFAFSLETSASTAYLQINNLKNEDTATYFCGRKDLLGFMDYWGQGTSVTVSS VL: DIQMTQSPSSLSASLGGKVTITCKTSQDINKFMAWYQHKPGKGPRLLIRYTSTLQPGIPSRFSGSGSGRDYSFSIRNLEPEDIATYYCLQYDDLTWTFGGGTKLEI",–,–,–,–,–,–,–,–,–,–,–,–,–,–,–,–,11.9 µg/mL,0.016 µg/mL,13.9 µg/mL
